Target: the molecule itself
Assay: SEC

B1: dolphin Prestin (SLC26A5) (natural protein)
chain: MDHVEETEILAATQRYYVERPIFSHPVLQERLHKKDKISESIGDKLKQAFTCTPKKIRNIIYMFLPITKWLPAYRFKEYVLGDIVSGISTGVLQLPQGLAFAMLAAVPPVFGLYSSFYPVIMYCFFGTSRHISIGPFAVISLMIGGVAVRLVPDDIVIPGGVNATNSTEARDALRVKVAMSVTLLTGIIQFCLGVCRFGFVAIYLTEPLVRGFTTAAAVHVFTSMLKYLFGVKTKRYSGIFSVVYSTVAVLQNVKNLNVCSLGVGLMVFGLLLGGKEFNERFKEKLPAPIPLEFFAVVMGTGISAGFSLHESYNVDVVGTLPLGLLPPANPDTSLFHLVYVDAIAIAIVGFSVTISMAKTLANKHGYQVDGNQELIALGLCNSTGSLFQTFAISCSLSRSLVQEGTGGKTQLAGCLASLMILLVILATGFLFESLPQAVLSAIVIVNLKGMFMQFSDLPFFWRTSKIELTIWLTTFVSSLFLGLDYGLITAVIIALMTVIYRTQSPSYIVLGQLPDTDVYIDIDAYEEVKEVPGIKIFQINAPIYYANSDLYSSALKRKTGVNPAFILGARRKAMKKYAKEVGNANMANATVVKVDAEVDAEDGTKPEEEEDEIKYPPIVTKSTLPEELQRFMPPGDNVHTIILDFTQVNFMDSVGVKTLAGIVKEYGDVGIYVYLAGCSAQVVSDLTQNQFFENPALLDLLFHSIHDAVLGSQVREALAEQEATAAPPQEDSEPNATPEA
Q: How did the “stoichiometry N” value turn out when B1 was run?
A: The value was 2.

Source: doi:10.1101/2021.08.06.455374 (bioRxiv, 2021)
